Patent US20160096866A1 (University of Pennsylvania, published 2016)
Like-named read-outs stand apart in the source and are kept apart here. Bridges are numbered along the chain shown (N, C = ends). [ ]: non-standard residue; d: D form. Trp(1-Me) = Cn1cc(C[C@H](N)C(=O)O)c2ccccc21; 2Nal = N[C@@H](Cc1ccc2ccccc2c1)C(=O)O

Experiments:
complement component C3 [1] = target: T1, complement component C3 (human, UniProt P01024 23-1663, limits assumed); experiment: cell-based or functional assay
complement component C3 [2] = target: T1, complement component C3; experiment: cell-based or functional assay; remark: listed apart in the source
complement component C3 [3] = target: T1, complement component C3; experiment: ITC; relative to the row 'Wild-type'
Procedure: Isothermal titration calorimetry experiments were performed using the Microcal VP-ITC calorimeter (Microcal Inc, Northampton, Mass.). Protein concentrations of 3.5-5 μM and peptide concentrations of 80-200 μM were used for these experiments. All titrations were performed in PBS (10 mM phosphate buffer with 150 mM NaCl, pH 7.4). In each experiment, the target protein, C3, was loaded into the cell, and peptide was loaded into the syringe. All experiments were performed at 25° C. and for each experiment, 2-μl peptide injections were made into the cell containing the protein. In each experiment, the raw isotherms were corrected for the heats of dilution by subtracting the isotherms representing peptide injections into the buffer. The resulting isotherms were fit to various models within the Origin 7.0 software, and the model that achieved the lowest chi square value was deemed to be appropriate for the respective dataset. Binding affinity and entropy values were plotted against log P values.
The calorimetric data obtained for the interaction of all the peptides with C3 fit to a one set of sites model with stoichiometry close to 1 (FIG. 4). […] As per the correlation, binding affinity increases with an increase in the hydrophobicity of the analog incorporated at position 4. This observation is consistent with the correlation shown between log P and the inhibitory constants.

complement component C3 [4] = target: T1, complement component C3; experiment: cell-based or functional assay; remark: listed apart in the source

T1 sequence (P01024 23-1663 limits assumed): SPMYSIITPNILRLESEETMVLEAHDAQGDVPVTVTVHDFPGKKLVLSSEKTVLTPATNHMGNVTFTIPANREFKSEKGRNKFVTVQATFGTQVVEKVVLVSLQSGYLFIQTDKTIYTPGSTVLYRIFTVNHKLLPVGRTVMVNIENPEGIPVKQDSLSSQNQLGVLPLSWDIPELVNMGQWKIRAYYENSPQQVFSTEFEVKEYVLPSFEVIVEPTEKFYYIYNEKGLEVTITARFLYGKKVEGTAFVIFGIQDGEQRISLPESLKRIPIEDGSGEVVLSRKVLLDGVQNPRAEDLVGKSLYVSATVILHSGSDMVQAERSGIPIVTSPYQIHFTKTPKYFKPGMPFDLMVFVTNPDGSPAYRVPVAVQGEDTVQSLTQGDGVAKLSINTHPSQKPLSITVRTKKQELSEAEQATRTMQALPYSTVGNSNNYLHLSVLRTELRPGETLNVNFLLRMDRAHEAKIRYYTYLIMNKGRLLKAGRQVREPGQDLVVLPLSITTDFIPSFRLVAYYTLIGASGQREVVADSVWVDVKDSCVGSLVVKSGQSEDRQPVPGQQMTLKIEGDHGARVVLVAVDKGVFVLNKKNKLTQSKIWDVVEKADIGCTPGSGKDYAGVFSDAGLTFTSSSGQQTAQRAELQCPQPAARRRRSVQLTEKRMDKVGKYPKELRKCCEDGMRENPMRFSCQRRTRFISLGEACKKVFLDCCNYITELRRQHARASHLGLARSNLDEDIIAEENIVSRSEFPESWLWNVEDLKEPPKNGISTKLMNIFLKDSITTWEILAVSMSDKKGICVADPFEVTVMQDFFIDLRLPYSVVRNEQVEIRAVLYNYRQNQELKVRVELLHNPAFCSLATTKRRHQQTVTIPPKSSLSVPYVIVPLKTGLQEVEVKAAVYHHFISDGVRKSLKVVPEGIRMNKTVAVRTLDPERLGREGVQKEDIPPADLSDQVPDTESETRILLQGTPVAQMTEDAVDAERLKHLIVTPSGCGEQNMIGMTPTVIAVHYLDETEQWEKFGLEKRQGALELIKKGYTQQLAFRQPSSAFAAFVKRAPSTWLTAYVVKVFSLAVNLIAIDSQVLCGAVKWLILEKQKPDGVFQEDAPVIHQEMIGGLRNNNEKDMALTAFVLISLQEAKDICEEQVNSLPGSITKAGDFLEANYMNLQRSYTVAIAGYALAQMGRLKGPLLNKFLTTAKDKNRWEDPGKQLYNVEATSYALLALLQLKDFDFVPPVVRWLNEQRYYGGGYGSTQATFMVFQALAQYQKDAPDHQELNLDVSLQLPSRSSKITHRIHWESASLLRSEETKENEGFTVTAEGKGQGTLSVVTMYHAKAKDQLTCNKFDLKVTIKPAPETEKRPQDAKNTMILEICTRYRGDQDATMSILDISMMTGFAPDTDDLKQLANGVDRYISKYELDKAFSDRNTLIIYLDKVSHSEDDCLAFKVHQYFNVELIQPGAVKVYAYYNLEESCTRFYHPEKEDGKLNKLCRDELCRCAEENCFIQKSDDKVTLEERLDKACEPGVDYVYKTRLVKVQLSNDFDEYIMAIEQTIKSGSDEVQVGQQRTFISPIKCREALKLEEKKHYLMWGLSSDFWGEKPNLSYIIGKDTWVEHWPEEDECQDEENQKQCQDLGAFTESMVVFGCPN

Row | IC50, complement inhibition (C3b/iC3b deposition ELISA, human plasma) (complement component C3 [1]) | Relative activity (to compstatin, SEQ ID NO: 1) (complement component C3 [1]) | Activity over compstatin (complement component C3 [1]) | Molecule | other results
1 | 460 nM | 0.5 fold |  | Ac-V4W/7(5-methoxy W)/H9A (peptide) | 
2 | 1200 nM | 45 fold | 45 fold | G(-1)/V4W/H9A/N14 (peptide) | 

Second part, the molecule before the results:

Row | Molecule | IC50, complement inhibition (C3b/iC3b deposition ELISA, human plasma) (complement component C3 [1]) | Relative activity (to compstatin, SEQ ID NO: 1) (complement component C3 [1]) | Activity over compstatin (complement component C3 [1]) | other results
3 | G(-1)/V4(5fW)/W7(5fW)/H9A/N14 (peptide) | 480 nM | 112 fold | 112 fold | complement inhibitory activity relative to Ac-V4W/H9A (complement component C3 [1]): 2.5 fold
4 | G(-1)/V4(5-OH-W)/W7(5-OH-W)/H9A/N14 (peptide) | 33000 nM | 1.6 fold |  | loss of complement inhibitory activity relative to Ac-V4W/H9A (complement component C3 [1]): 27.5 fold
5 | G(-1)/V4(6fW)/W7(6fW)/H9A/N14 (peptide) | 430 nM | 126 fold | 126 fold | complement inhibitory activity relative to Ac-V4W/H9A (complement component C3 [1]): 2.8 fold
6 | G(-1)/V4(7-aza-W)/W7(7-aza-W)/H9A/N14 (peptide) | 122000 nM | 0.44 fold |  | 
7 | Ac-ICV[2Nal]QDWGAHRCT-NH2 (disulfide 2-12; SMILES CC[C@H](C)[C@H](NC(C)=O)C(=O)N[C@H]1CSSC[C@@H](C(=O)N[C@H](C(N)=O)[C@@H](C)O)NC(=O)[C@H](CCCNC(=N)N)NC(=O)[C@H](Cc2c[nH]cn2)NC(=O)[C@H](C)NC(=O)CNC(=O)[C@H](Cc2c[nH]c3ccccc23)NC(=O)[C@H](CC(=O)O)NC(=O)[C@H](CCC(N)=O)NC(=O)[C@H](Cc2ccc3ccccc3c2)NC(=O)[C@H](C(C)C)NC1=O, also called Ac-V4(2-Nal)/W7/H9A) [Ac-V4(2-Nal)/H9A] |  |  |  | IC50, complement inhibition (C3b/iC3b deposition ELISA, human plasma) (complement component C3 [2]): 545 nM; -TΔΔS (complement component C3 [3]): -3.99 kcal/mol; ΔΔG (complement component C3 [3]): -0.1 kcal/mol; ΔΔH (complement component C3 [3]): 3.87 kcal/mol
8 | ICVWQDWGAHRCTK (N-terminal acetyl; 1-methyltryptophan at position 4; lysine added at the C-terminus with PEG 5000 linked to its side chain) [Ac-V4(1-methyl-W)/H9A-K-PEG 5000] |  |  |  | amount needed for the same complement inhibition as Ac-V4(1-methyl-W)/H9A (complement component C3 [4]): 7 fold
9 | Ac-ICV[Trp(1-Me)]QDWGAHRCTRLIEDICLPRWGCLWEDD-NH2 (disulfide 2-12, 20-26) [4(1MeW)-ABP] |  |  |  | amount needed for the same complement inhibition as Ac-V4(1-methyl-W)/H9A (complement component C3 [4]): 7 fold
